The values below are quoted from earlier work in article PMC11695321.

As a reminder, the Kd is the equilibrium constant for the complex coming apart.

Among the targets are IKKα (Homo sapiens) (UniProt O15111); IKKβ (Homo sapiens) (UniProt O14920); NF-κB p50 (Homo sapiens) (UniProt P19838).
What all share (test): SPR
(Surface plasmon resonance follows binding to a sensor surface in real time, without labels.)

Sequence of UniProt O15111 (O15111 whole entry): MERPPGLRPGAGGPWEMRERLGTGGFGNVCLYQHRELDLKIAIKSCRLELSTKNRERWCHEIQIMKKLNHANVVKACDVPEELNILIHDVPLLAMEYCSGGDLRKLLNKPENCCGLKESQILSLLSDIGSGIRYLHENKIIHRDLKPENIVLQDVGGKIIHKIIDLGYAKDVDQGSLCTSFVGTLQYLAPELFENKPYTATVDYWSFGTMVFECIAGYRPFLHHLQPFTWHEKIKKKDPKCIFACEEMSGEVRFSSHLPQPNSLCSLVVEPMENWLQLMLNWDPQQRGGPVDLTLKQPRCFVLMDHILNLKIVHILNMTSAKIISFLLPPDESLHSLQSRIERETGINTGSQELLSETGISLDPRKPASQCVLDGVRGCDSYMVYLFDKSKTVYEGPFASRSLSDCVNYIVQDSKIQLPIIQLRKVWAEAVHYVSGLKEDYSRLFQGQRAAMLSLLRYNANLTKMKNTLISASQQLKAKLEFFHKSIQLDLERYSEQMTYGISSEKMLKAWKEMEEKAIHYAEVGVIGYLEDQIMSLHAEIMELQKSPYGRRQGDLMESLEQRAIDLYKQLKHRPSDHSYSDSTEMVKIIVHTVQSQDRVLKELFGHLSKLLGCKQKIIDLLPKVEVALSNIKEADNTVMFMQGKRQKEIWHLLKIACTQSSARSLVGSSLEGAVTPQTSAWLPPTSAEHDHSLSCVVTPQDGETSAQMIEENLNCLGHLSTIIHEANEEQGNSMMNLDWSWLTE
Sequence of UniProt O14920 (O14920 whole entry): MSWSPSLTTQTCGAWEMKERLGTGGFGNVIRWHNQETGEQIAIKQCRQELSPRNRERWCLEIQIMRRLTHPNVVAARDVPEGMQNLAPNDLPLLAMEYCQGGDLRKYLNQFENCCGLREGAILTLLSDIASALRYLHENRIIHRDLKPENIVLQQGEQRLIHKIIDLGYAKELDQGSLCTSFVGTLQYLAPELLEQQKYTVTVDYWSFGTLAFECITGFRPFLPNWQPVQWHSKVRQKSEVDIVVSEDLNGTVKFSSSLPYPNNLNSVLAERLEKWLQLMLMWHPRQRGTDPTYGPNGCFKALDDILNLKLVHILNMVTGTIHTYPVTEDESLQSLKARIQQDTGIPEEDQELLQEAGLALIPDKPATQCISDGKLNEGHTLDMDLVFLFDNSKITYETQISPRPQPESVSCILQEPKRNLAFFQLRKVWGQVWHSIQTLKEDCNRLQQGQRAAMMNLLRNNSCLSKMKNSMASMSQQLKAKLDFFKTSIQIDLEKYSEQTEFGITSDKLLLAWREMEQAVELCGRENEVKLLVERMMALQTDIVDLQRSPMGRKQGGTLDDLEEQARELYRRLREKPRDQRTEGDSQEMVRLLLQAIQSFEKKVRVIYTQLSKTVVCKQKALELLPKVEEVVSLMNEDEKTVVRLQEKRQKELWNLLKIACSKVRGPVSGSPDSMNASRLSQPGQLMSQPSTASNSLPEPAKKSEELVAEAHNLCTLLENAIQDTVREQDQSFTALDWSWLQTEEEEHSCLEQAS
Sequence of UniProt P19838 (P19838 1-433): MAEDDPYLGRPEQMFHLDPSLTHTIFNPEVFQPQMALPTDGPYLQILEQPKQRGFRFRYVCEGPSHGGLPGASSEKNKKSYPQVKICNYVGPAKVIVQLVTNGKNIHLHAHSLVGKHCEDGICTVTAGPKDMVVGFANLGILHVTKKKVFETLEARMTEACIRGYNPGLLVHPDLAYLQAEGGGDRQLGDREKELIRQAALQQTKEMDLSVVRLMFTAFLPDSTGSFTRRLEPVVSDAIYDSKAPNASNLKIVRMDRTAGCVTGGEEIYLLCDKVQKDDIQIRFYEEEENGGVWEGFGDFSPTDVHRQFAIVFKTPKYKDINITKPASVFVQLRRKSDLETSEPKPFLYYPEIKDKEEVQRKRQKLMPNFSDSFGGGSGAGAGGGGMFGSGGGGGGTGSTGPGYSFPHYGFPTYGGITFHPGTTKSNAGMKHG

For the substance melittin (from UniProt P01501), the values for the dissociation constant Kd with IKKα (Homo sapiens), in the data set with IKKβ (Homo sapiens) and with NF-κB p50 (Homo sapiens) were 4600 nM, 1.34 nM and 1.01 nM, respectively.
